In IntAct's records for PubMed 28684427:

B1: ALBINO3-like protein 1, chloroplastic (Arabidopsis thaliana (Mouse-ear cress)), Q9FYL3 (parent)
chain: MSSTISLKPTHLILSSFSTGKVLQFRRSRFSHTPSSSSSRYRTLVAQLGFRPDSFDFIKDHAENLLYTIADAAVSSSETFESVAGTTTKTTQSNDWFSGIANYMETILKVLKDGLSTVHVPYSYGFAIILLTVLVKAATFPLTKKQVESAMAMKSLTPQIKAIQERYAGDQEKIQLETARLYKLAGINPLAGCLPTLATIPVWIGLYRALSNVADEGLLTEGFFWIPSLAGPTTVAARQNGSGISWLFPFIEGHPPLGWPDTLAYLVLPLLLVFSQYLSIQIMQSSQSNDPAMKSSQAVTKLLPLMIGYFALSVPSGLSLYWLTNNILSTAQQVWLQKYGGAKNPVEKFTNLVTKEDKTQQIEKSFSEPLVQKSVSELKIPREKGGEKVTPECPKPGERFRLLKEQEAKRRREKEERQKAEAALSNQNTDKAHEQDEKSDTAIVAEDDKKTELSAVDETSDGTVAVNGKPSIQKDETTNGTFGIGHDTEQQHSHETEKR
partner: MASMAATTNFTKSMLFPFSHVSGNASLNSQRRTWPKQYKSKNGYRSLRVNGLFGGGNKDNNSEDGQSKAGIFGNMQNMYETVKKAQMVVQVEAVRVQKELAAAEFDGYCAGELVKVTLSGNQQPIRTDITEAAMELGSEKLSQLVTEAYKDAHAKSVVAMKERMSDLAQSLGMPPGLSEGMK

Variants of: B1
Conditions: with ebfc2_arath STIC2, O82230

effect of a mutation on the interaction | Variant
decreasing interaction strength | MSSTISLKPTHLILSSFSTGKVLQFRRSRFSHTPSSSSSRYRTLVAQLGFRPDSFDFIKDHAENLLYTIADAAVSSSETFESVAGTTTKTTQSNDWFSGIANYMETILKVLKDGLSTVHVPYSYGFAIILLTVLVKAATFPLTKKQVESAMAMKSLTPQIKAIQERYAGDQEKIQLETARLYKLAGINPLAGCLPTLATIPVWIGLYRALSNVADEGLLTEGFFWIPSLAGPTTVAARQNGSGISWLFPFIEGHPPLGWPDTLAYLVLPLLLVFSQYLSIQIMQSSQSNDPAMKSSQAVTKLLPLMIGYFALSVPSGLSLYWLTNNILSTAQQVWLQKYGGAKNPVEKFTNLVTKEDKTQQIEKSFSEPLVQKSVSELKIPREKGGEKVTPECPKPSERFRLLKEQEAKRRREKEERQKAEAALSNQNTDKAHEQDEKSDTAIVAEDDKKTELSAVDETSDGTVAVNGKPSIQKDETTNGTFGIGHDTEQQHSHETEKR [G397S]

Variants of: B1
Conditions: with ebfc2_arath STIC2, O82230
Remark: another data set of the same source

effect of a mutation on the interaction | Variant
with no effect | MSSTISLKPTHLILSSFSTGKVLQFRRSRFSHTPSSSSSRYRTLVAQLGFRPDSFDFIKDHAENLLYTIADAAVSSSETFESVAGTTTKTTQSNDWFSGIANYMETILKVLKDGLSTVHVPYSYGFAIILLTVLVKAATFPLTKKQVESAMAMKSLTPQIKAIQERYAGDQEKIQLETARLYKLAGINPLAGCLPTLATIPVWIGLYRALSNVADEGLLTEGFFWIPSLAGPTTVAARQNGSGISWLFPFIEGHPPLGWPDTLAYLVLPLLLVFSQYLSIQIMQSSQSNDPAMKSSQAVTKLLPLMIGYFALSVPSGLSLYWLTNNILSTAQQVWLQKYGGAKNPVEKFTNLVTKEDKTQQIEKSFSEPLVQKSVSELKIPREKGGEKVTPECPKPSERFRLLKEQEAKRRREKEERQKAEAALSNQNTDKAHEQDEKSDTAIVAEDDKKTELSAVDETSDGTVAVNGKPSIQKDETTNGTFGIGHDTEQQHSHETEKR [G397S]
